Test results: patent US20100093076A1, “SOLUBLE IL-27 RECEPTOR” (priority 2006, published 2010)

Tests used:
huIL-27 [1] = molecular target: T1, huIL-27 (Homo sapiens, UniProt Q14213+Q8NEV9); assay: Phospho-STAT3 (BIO-PLEX) neutralization of IL-27 by soluble receptors, mouse spleens; format: cell-based; settings: ligand huIL-27 at EC90 (2 nM)
T1 construct: purchased R&D Systems
T1 sequence (Q8NEV9 29-243): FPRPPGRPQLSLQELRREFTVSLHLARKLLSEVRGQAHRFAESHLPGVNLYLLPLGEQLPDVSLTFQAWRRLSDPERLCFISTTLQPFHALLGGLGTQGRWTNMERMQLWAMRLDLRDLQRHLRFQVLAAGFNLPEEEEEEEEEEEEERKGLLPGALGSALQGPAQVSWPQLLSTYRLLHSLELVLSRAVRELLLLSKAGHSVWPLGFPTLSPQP
T1 sequence (Q14213 21-229): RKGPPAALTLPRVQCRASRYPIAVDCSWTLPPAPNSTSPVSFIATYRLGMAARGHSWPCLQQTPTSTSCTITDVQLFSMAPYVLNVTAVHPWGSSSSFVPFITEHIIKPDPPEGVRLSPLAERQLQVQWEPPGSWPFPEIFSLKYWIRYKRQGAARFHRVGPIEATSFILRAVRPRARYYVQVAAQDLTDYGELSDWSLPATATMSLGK
Description: (§1) Whole mouse spleens were harvested from C57 B1/6 mice and washed two times with 1×PBS before being plated out at 2×10^5 cells/well in assay media (RPMI 1640 plus 10% fetal bovine serum) in 96-well, round-bottom tissue culture plates. Total human PBMC (peripheral blood mononuclear cells) were thawed from a frozen vial collected from a leukapherisis donation and washed two times with 1×PBS before being plated out at 10^6 cells/well in assay media in 96-well, round-bottom tissue culture plates. […] Following pre-incubation, treatments were added to the plates containing the cells and incubated together at 37° C. for 15 minutes.
(§2) Following incubation, cells were washed with ice-cold wash buffer (BIO-PLEX Cell Lysis Kit, BIO-RAD Laboratories, Hercules, Calif.) and put on ice to stop the reaction according to manufacturer's instructions. […]
(§3) Capture beads (BIO-PLEX Phospho-Stat3 Assay, BIO-RAD Laboratories) were combined with 50 μL of 1:1 diluted lysates and added to a 96-well filter plate according to manufacture's instructions (BIO-PLEX Phosphoprotein Detection Kit, BIO-RAD Laboratories). […] After the final wash, beads were resuspended in 125 μL/well of bead suspension buffer, shaken for 30 seconds, and read on an array reader (BIO-PLEX, BIO-RAD Laboratories) according to the manufacture's instructions. Data were analyzed using analytical software (BIO-PLEX MANAGER 3.0, BIO-RAD Laboratories). […]

muIL-27 [2] = molecular target: T2, muIL-27 (Mus musculus, UniProt O35228+Q8K3I6); assay: as above; format: cell-based; settings: ligand muIL-27 at EC90 (0.2 nM)
T2 construct: purchased R&D Systems
T2 sequence (Q8K3I6 29-234): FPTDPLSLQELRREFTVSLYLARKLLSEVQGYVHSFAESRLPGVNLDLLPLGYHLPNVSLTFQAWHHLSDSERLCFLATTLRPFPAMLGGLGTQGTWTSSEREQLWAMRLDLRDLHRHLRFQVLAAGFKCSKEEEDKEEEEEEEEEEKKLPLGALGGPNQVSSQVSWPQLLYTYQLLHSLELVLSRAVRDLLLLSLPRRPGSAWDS
T2 sequence (O35228 19-228): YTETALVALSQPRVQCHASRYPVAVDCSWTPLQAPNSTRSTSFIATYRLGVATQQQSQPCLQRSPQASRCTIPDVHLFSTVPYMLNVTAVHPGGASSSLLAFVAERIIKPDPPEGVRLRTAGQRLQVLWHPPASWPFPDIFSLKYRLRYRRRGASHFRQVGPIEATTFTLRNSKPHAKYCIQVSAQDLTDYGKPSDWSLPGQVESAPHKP
Description: as §1, §2, §3

huIL-27 [3] = molecular target: T1, huIL-27; assay: Phospho-STAT3 (BIO-PLEX) neutralization of IL-27 by soluble receptors, total human PBMCs; format: cell-based; settings: ligand huIL-27 at EC90 (2 nM)
Description: as §1, §2, §3

muIL-27 [4] = molecular target: T2, muIL-27; assay: as above; format: cell-based; settings: ligand muIL-27 at EC90 (2 nM)
Description: as §1, §2, §3

[5] = Pharmacokinetics of soluble receptors in female C57B1/6 mice (serum ELISA, noncompartmental analysis); format: in vivo, mouse; settings: 100 μg; for AUCINF: extrapolated to infinity
Procedure: Studies were performed to evaluate the pharmacokinetics of the mouse (IL-27RAm(mFc1)) and human (IL-27RA-Fc5) soluble receptors in female C57B1/6 mice.
Serum was generated from each sample and analyzed by a qualified enzyme-linked immunosorbant assay (ELISA). The resulting mean serum concentration versus time profiles were then subjected to noncompartmental pharmacokinetic analyses. The following pharmacokinetic parameters were calculated: C0 and Cmax (extrapolated concentration at time zero and maximum serum concentration, respectively), Tmax (time to achieve maximum concentration), t1/2 λz (terminal half-life), AUC0-t (area under the concentration versus time curve from time zero to the last measurable time point), AUCINF (area under the concentration versus time curve extrapolated to infinity), C1 or C1/F (clearance or clearance divided by bioavailable fraction, respectively), VSS or VZ/F (steady state volume of distribution or volume of distribution divided by the bioavailable fraction, respectively), and F (bioavailable fraction).

Work on “human IL-27RA-Fc5: Extracellular domain of human IL27RA (amino acids 1 to 512 of SEQ ID NO:3) fused to Fc5, effector minus human gamma1 Fc; SEQ ID NO:16” yielded an IC50 (huIL-27 [1]) of 0.32 nM, an IC50 (muIL-27 [2]) of 0.14 nM and an IC50 (huIL-27 [3]) of 0.95 nM. It also gave an IC50 (muIL-27 [4]) of 2.97 nM, an AUC0-120 ([5]; IP) of 1310 µg·h/mL and a Cl/F ([5]; IP) of 0.0725 mL/h. The Tmax ([5]; IP) was 3 h, the “t1/2 λz (terminal half-life)” value ([5]; IP) was 28.3 h and the Cmax ([5]; IP, mouse serum) was 35200 ng/mL. It also gave an AUCINF ([5]; IP) of 1380 µg·h/mL, an AUC0-120 ([5]; IV) of 1400 µg·h/mL and a Cl ([5]; IV) of 0.0664 mL/h. For the same substance, the Vss ([5]; IV) was 2.54 mL, the “t1/2 λz (terminal half-life)” value ([5]; IV) was 34.9 h and the “Co (extrapolated concentration at time zero)” value ([5]; IV, mouse serum) was 122 µg/mL. For the same substance, the AUCINF ([5]; IV) was 1510 µg·h/mL, the AUC0-120 ([5]; SC) was 1130 µg·h/mL and the Cl/F ([5]; SC) was 0.0828 mL/h. The Tmax ([5]; SC) was 6 h, the “t1/2 λz (terminal half-life)” value ([5]; SC) was 29.3 h and the Cmax ([5]; SC, mouse serum) was 21000 ng/mL. For the same substance, the AUCINF ([5]; SC) was 1210 µg·h/mL.
